US20190321401A1 (JUNO THERAPEUTICS, published 2019)

What was measured:
[1] = molecular target: T1, HPV 16 E7 peptide on HLA-A*02:01 (human); experiment: multimer staining
T1 peptide: YMLDLQPET

[2] = molecular target: T2, HPV 16 E6 peptide on HLA-A*02:01 (human); experiment: multimer staining
T2 peptide: TIHDIILECV

[3] = molecular target: T3, HPV 16 E7(11-19), single-substitution variant Y1N (synthetic scanning library) peptide on HLA-A*02:01 (human); experiment: activation reporter or marker
T3 peptide: NMLDLQPET

[4] = molecular target: T4, HPV 16 E7(11-19), single-substitution variant Y1H (synthetic scanning library) peptide on HLA-A*02:01 (human); experiment: activation reporter or marker
T4 peptide: HMLDLQPET

[5] = molecular target: T5, HPV 16 E7(11-19), single-substitution variant Y1I (synthetic scanning library) peptide on HLA-A*02:01 (human); experiment: activation reporter or marker
T5 peptide: IMLDLQPET

[6] = molecular target: T6, HPV 16 E7(11-19), single-substitution variant Y1M (synthetic scanning library) peptide on HLA-A*02:01 (human); experiment: activation reporter or marker
T6 peptide: MMLDLQPET

[7] = molecular target: T7, HPV 16 E7(11-19), single-substitution variant Y1F (synthetic scanning library) peptide on HLA-A*02:01 (human); experiment: activation reporter or marker
T7 peptide: FMLDLQPET

[8] = molecular target: T8, HPV 16 E7(11-19), single-substitution variant Y1W (synthetic scanning library) peptide on HLA-A*02:01 (human); experiment: activation reporter or marker
T8 peptide: WMLDLQPET

[9] = molecular target: T9, HPV 16 E7(11-19), single-substitution variant Y1V (synthetic scanning library) peptide on HLA-A*02:01 (human); experiment: activation reporter or marker
T9 peptide: VMLDLQPET

[10] = molecular target: T10, HPV 16 E7(11-19), single-substitution variant M2Q (synthetic scanning library) peptide on HLA-A*02:01 (human); experiment: activation reporter or marker
T10 peptide: YQLDLQPET

[11] = molecular target: T11, HPV 16 E7(11-19), single-substitution variant M2L (synthetic scanning library) peptide on HLA-A*02:01 (human); experiment: activation reporter or marker
T11 peptide: YLLDLQPET

[12] = molecular target: T12, HPV 16 E7(11-19), single-substitution variant L3A (synthetic scanning library) peptide on HLA-A*02:01 (human); experiment: activation reporter or marker
T12 peptide: YMADLQPET

[13] = molecular target: T13, HPV 16 E7(11-19), single-substitution variant L3I (synthetic scanning library) peptide on HLA-A*02:01 (human); experiment: activation reporter or marker
T13 peptide: YMIDLQPET

[14] = molecular target: T14, HPV 16 E7(11-19), single-substitution variant D4N (synthetic scanning library) peptide on HLA-A*02:01 (human); experiment: activation reporter or marker
T14 peptide: YMLNLQPET

[15] = molecular target: T15, HPV 16 E7(11-19), single-substitution variant D4C (synthetic scanning library) peptide on HLA-A*02:01 (human); experiment: activation reporter or marker
T15 peptide: YMLCLQPET

[16] = molecular target: T16, HPV 16 E7(11-19), single-substitution variant L5M (synthetic scanning library) peptide on HLA-A*02:01 (human); experiment: activation reporter or marker
T16 peptide: YMLDMQPET

[17] = molecular target: T17, HPV 16 E7(11-19), single-substitution variant L5F (synthetic scanning library) peptide on HLA-A*02:01 (human); experiment: activation reporter or marker
T17 peptide: YMLDFQPET

[18] = molecular target: T18, HPV 16 E7(11-19), single-substitution variant Q6H (synthetic scanning library) peptide on HLA-A*02:01 (human); experiment: activation reporter or marker
T18 peptide: YMLDLHPET

[19] = molecular target: T19, HPV 16 E7(11-19), single-substitution variant E8A (synthetic scanning library) peptide on HLA-A*02:01 (human); experiment: activation reporter or marker
T19 peptide: YMLDLQPAT

[20] = molecular target: T20, HPV 16 E7(11-19), single-substitution variant E8N (synthetic scanning library) peptide on HLA-A*02:01 (human); experiment: activation reporter or marker
T20 peptide: YMLDLQPNT

[21] = molecular target: T21, HPV 16 E7(11-19), single-substitution variant E8D (synthetic scanning library) peptide on HLA-A*02:01 (human); experiment: activation reporter or marker
T21 peptide: YMLDLQPDT

[22] = molecular target: T22, HPV 16 E7(11-19), single-substitution variant E8C (synthetic scanning library) peptide on HLA-A*02:01 (human); experiment: activation reporter or marker
T22 peptide: YMLDLQPCT

[23] = molecular target: T23, HPV 16 E7(11-19), single-substitution variant E8K (synthetic scanning library) peptide on HLA-A*02:01 (human); experiment: activation reporter or marker
T23 peptide: YMLDLQPKT

[24] = molecular target: T24, HPV 16 E7(11-19), single-substitution variant E8T (synthetic scanning library) peptide on HLA-A*02:01 (human); experiment: activation reporter or marker
T24 peptide: YMLDLQPTT

[25] = molecular target: T25, HPV 16 E7(11-19), single-substitution variant E8V (synthetic scanning library) peptide on HLA-A*02:01 (human); experiment: activation reporter or marker
T25 peptide: YMLDLQPVT

[26] = molecular target: T26, HPV 16 E7(11-19), single-substitution variant T9D (synthetic scanning library) peptide on HLA-A*02:01 (human); experiment: activation reporter or marker
T26 peptide: YMLDLQPED

[27] = molecular target: T27, HPV 16 E7(11-19), single-substitution variant T9I (synthetic scanning library) peptide on HLA-A*02:01 (human); experiment: activation reporter or marker
T27 peptide: YMLDLQPEI

[28] = molecular target: T28, HPV 16 E7(11-19), single-substitution variant T9L (synthetic scanning library) peptide on HLA-A*02:01 (human); experiment: activation reporter or marker
T28 peptide: YMLDLQPEL

[29] = molecular target: T29, HPV 16 E7(11-19), single-substitution variant T9F (synthetic scanning library) peptide on HLA-A*02:01 (human); experiment: activation reporter or marker
T29 peptide: YMLDLQPEF

[30] = molecular target: T30, HPV 16 E7(11-19), single-substitution variant T9V (synthetic scanning library) peptide on HLA-A*02:01 (human); experiment: activation reporter or marker
T30 peptide: YMLDLQPEV

B1: TCR 57 (TCR, V domains shown)
Valpha: TQLLEQSPQFLSIQEGENLTVYCNSSSVFSSLQWYRQEPGEGPVLLVTVVTGGEVKKLKRLTFQFGDARKDSSLHITAAQPGDTGLYLCAGARNFNKFYFGSGTKLNVKP
Vbeta: GAVVSQHPSWVICKSGTSVKIECRSLDFQATTMFWYRQFPKQSLMLMATSNEGSKATYEQGVEKDKFLINHASLTLSTLTVTSAHPEDSSFYICSARSWRGGLEQFFGPGTRLTVL
Question: What does the source list for B1?
Answer: binding result [1]: recognises; binding result [2]: no recognition; binding result [3]: recognises; binding result [4]: recognises; binding result [5]: recognises; binding result [6]: recognises; binding result [7]: recognises; binding result [8]: recognises; binding result [9]: recognises; binding result [10]: recognises; binding result [11]: recognises; binding result [12]: recognises; binding result [13]: recognises; binding result [14]: recognises; binding result [15]: recognises; binding result [16]: recognises; binding result [17]: recognises; binding result [18]: recognises; binding result [19]: recognises; binding result [20]: recognises; binding result [21]: recognises; binding result [22]: recognises; binding result [23]: recognises; binding result [24]: recognises; binding result [25]: recognises; binding result [26]: recognises; binding result [27]: recognises; binding result [28]: recognises; binding result [29]: recognises; binding result [30]: recognises
